Laboratory results as given in patent US20140112931A1.

Key:
[1] = target: human HER3-Fc protein (R&D system) (human) (UniProt P21860); experiment: ELISA, HER3-Fc coated at 250 ng/ml
[2] = target: HER3 receptor (soluble analyte of the BIACORE analysis) (human) (UniProt P21860); experiment: SPR, BIACORE 3000, 25 °C; antibody captured by anti-mouse polyclonal on CM5, HER3 receptor injected; bivalent analyte model
[3] = target: human HER3-Fc protein (R&D system) (human) (UniProt P21860); experiment: ELISA towards a 250 ng/ml coating solution of HER3 receptor, purified antibody

EC50 [1]: < 1 ng/mL | Kd [2]: 4.4 nM | koff [2]: 0.00024 s⁻¹ | kon [2]: 54000 M⁻¹ s⁻¹ | Ab titer after purification (Ab concentration showing an absorbance of 1 by ELISA) [3]: 400 pg/mL
B1: murine anti-HER3 monoclonal antibody 9F7-F11 (antibody, from another filing, V domains shown)
VH: EVKLVESGGGLVQPGGSLKLSCAASGFTFSSYTMSWVRQTPEKRLEWVAYISDGGGVTYYPDTIKGRFTISRDNAKNTLYLQMSSLKSEDTAMYYCARDRYGLFAYWGQGTLVTVSA
VL: DIVMTQSQKFMSTSVGDRVSITCKASQNVGIAVAWYQQKPGQSPKLLIYSASNRYTGVPDRFTGSGSGTDFTLTISNMQSEDLADYFCQQYSNYPYTFGGGTKLEIK
